In patent publication US20030162943A1 (Takeda / Millennium, published 2003):

T1: murine D6 (murine, UniProt O08707 1-378)
T1 construct: Endogenous on B-end cells in the polyclonal antibody staining; also called murine D6 receptor; mouse D6
T1 sequence: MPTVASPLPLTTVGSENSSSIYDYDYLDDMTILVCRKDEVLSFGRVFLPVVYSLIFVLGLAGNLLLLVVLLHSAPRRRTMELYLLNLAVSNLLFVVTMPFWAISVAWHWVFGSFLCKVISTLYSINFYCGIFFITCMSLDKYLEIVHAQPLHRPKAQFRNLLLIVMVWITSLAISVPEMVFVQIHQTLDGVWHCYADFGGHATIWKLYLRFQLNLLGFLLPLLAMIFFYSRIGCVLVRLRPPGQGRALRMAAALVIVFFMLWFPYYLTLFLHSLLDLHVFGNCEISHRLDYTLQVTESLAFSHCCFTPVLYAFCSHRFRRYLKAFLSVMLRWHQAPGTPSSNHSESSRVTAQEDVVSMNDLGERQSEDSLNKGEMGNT

T2: human D6 (human, UniProt O00590 1-384)
T2 construct: Full-length human D6 expressed in CHO, Hos.CD4, HEK 293, K293 or L1.2 cells; Endogenous on THP-1 cells; also called human D6 receptor; wild type human D6
T2 sequence: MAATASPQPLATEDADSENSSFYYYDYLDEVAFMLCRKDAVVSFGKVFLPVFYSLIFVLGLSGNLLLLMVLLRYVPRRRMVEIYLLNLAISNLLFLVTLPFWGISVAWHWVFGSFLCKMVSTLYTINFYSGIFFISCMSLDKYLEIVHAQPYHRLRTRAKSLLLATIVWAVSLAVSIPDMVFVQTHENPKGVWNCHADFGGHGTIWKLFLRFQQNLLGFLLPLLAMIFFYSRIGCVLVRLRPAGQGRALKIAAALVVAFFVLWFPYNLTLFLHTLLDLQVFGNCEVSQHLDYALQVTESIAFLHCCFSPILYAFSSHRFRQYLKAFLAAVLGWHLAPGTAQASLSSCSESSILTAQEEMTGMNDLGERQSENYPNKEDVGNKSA

T3: human CCR5 (human, UniProt P51681 1-352 at identity 1.00))
T3 chain: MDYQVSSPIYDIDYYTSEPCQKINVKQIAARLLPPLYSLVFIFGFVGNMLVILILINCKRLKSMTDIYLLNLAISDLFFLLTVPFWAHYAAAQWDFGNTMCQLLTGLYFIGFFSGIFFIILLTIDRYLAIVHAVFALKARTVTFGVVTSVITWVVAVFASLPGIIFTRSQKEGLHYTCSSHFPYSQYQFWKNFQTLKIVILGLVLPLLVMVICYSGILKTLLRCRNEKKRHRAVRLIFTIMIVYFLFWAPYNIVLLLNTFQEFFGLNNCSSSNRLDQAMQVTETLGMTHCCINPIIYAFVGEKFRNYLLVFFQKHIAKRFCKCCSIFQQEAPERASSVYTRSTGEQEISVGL

B1: human D6 mutant K142R, E145A (receptor)
chain: MAATASPQPLATEDADSENSSFYYYDYLDEVAFMLCRKDAVVSFGKVFLPVFYSLIFVLGLSGNLLLLMVLLRYVPRRRMVEIYLLNLAISNLLFLVTLPFWGISVAWHWVFGSFLCKMVSTLYTINFYSGIFFISCMSLDRYLAIVHAQPYHRLRTRAKSLLLATIVWAVSLAVSIPDMVFVQTHENPKGVWNCHADFGGHGTIWKLFLRFQQNLLGFLLPLLAMIFFYSRIGCVLVRLRPAGQGRALKIAAALVVAFFVLWFPYNLTLFLHTLLDLQVFGNCEVSQHLDYALQVTESIAFLHCCFSPILYAFSSHRFRQYLKAFLAAVLGWHLAPGTAQASLSSCSESSILTAQEEMTGMNDLGERQSENYPNKEDVGNKSA
notes: Expressed in HEK 293 cells; also called K142R,E145A mutant
B2: human D6 triple mutant N92D, K142R, E145A (receptor)
chain: MAATASPQPLATEDADSENSSFYYYDYLDEVAFMLCRKDAVVSFGKVFLPVFYSLIFVLGLSGNLLLLMVLLRYVPRRRMVEIYLLNLAISDLLFLVTLPFWGISVAWHWVFGSFLCKMVSTLYTINFYSGIFFISCMSLDRYLAIVHAQPYHRLRTRAKSLLLATIVWAVSLAVSIPDMVFVQTHENPKGVWNCHADFGGHGTIWKLFLRFQQNLLGFLLPLLAMIFFYSRIGCVLVRLRPAGQGRALKIAAALVVAFFVLWFPYNLTLFLHTLLDLQVFGNCEVSQHLDYALQVTESIAFLHCCFSPILYAFSSHRFRQYLKAFLAAVLGWHLAPGTAQASLSSCSESSILTAQEEMTGMNDLGERQSENYPNKEDVGNKSA
notes: Expressed in HEK 293 cells
B3: murine MIP-1α (ligand, UniProt P10855 24-92, looked up)
chain: APYGADTPTACCFSYSRKIPRQFIVDYFETSSLCSQPGVIFLTKRNRQICADSKETWVQEYITDLELNA
modifications: also: radioiodinated (125I) when used as tracer
notes: also called mMIP-1α

Assays:
murine D6 [1] = target: T1, murine D6; assay: competition with 125I-murine MIP-1α on CHO cells stably expressing murine D6; LIGAND analysis
Method: (§1) Stably transfected CHO cells were plated at 10^5 cells/well in 24-well plates and incubated overnight at 37° C. After washing with warm PBS, the cells were incubated in 250 μl of binding buffer (special liquid medium plus 10% fetal calf serum, 4 mM glutamine, 0.2% sodium azide, 25 mM HEPES (pH 7.4)) containing variable concentrations of radioiodinated MIP-1 and cold competitor chemokine. Binding proceeded for 90 minutes at 22° C., then each well washed three times in ice-cold PBS and the cell monolayer was then solubilized by the addition of 0.5 ml of 1% SDS. Lysed cells were transferred to a counting vial and bound radioactivity counted for 1 minute in Beckman Gamma 5500B counter. Each data point was assayed in triplicate and each experiment performed at least twice of accuracy. Data was analyzed using Scahot and Scafit programs in LIGAND software (Munson et al. (1980) Anal. Biochem. 107:220-239).

human D6 = target: T2, human D6; assay: displacement of 125I-murine MIP-1α by unlabeled chemokine on cells expressing human D6; LIGAND analysis
Method: as §1
The receptor binding assays were carried out as described above for the displacement analysis of murine D6 with cells being plated at 2×10⁵ cells/well in 24-well plates and incubated overnight at 37° C. prior to binding analysis.

murine MIP-1α = target: B3; assay: radioligand binding on transfected cells
[2] = target: B1; assay: cell-based or functional assay
[3] = target: B2; assay: cell-based or functional assay
human CCR5 = target: T3, human CCR5; assay: cell-based or functional assay
murine D6 [4] = target: T1, murine D6; assay: displacement of radiolabeled murine MIP-1α from murine D6 on transfected cells
Method: as §1

murine D6 [5] = target: T1, murine D6; assay: binding assays on CHO cells expressing murine D6
Method: as §1

Row | Kd (murine D6 [1]) | Kd (human D6) | Binder | other results
1 | 0.77 nM | 0.755 nM | murine MIP-1β (ligand, UniProt P14097 24-92, looked up, also called mMIP-1β; murine M1β) APMGSDPPTSCCFSYTSRQLHRSFVMDYYETSSLCSKPAVVFLTKRGRQICANPSEPWVTEYMSDLELN | 
2 |  | 27.2 nM | human HCC1 (ligand, UniProt Q16627 20-93, looked up) TKTESSSRGPYHPSECCFTYTTYKIPRQRIMDYYETNSQCSKPGIVFITKRGHSVCTNPSDKWVQDYIKDMKEN | 
3 | 1.5 nM | 613 nM | murine JE (ligand, They are treated here as one protein (JE is the murine MCP-1); also called murine MCP-1) not shown | 
4 |  |  | B1 | binding result (murine MIP-1α): binds
5 |  |  | B2 | binding result (murine MIP-1α): binds
6 | 0.26 nM | 1.7 nM | human MIP-1β (ligand, UniProt P13236 24-92, looked up) APMGSDPPTACCFSYTARKLPRNFVVDYYETSSLCSQPAVVFQTKRSKQVCADPSESWVQEYVYDLELN | 
7 |  | 30 nM | murine Eotaxin (ligand, UniProt P48298 24-97, looked up) HPGSIPTSCCFIMTSKKIPNTLLKSYKRITNNRCTLKAIVFKTRLGKEICADPKKKWVQDATKHLDQKLQTPKP | 
8 |  | 768 nM | human MCP-2 (ligand, UniProt P80075 24-99, looked up, also called hMCP-2) QPDSVSIPITCCFNVINRKIPIQRLESYTRITNIQCPKEAVIFKTKRGKEVCADPKERWVRDSMKHLDQIFQNLKP | [Ca++] [2]: 22.9 nmol/L; [Ca++] [3]: 13.7 nmol/L
9 |  | 5.9 nM | human MCP-4 (ligand) not shown | 
10 |  | 64 nM | human MIP-1α (ligand, UniProt P10147 24-92, looked up, also called hMIP-1α) SLAADTPTACCFSYTSRQIPQNFIADYFETSSQCSKPGVIFLTKRSRQVCADPSEEWVQKYVSDLELSA | [Ca++] (human CCR5): 412 nmol/L
11 |  |  | KC (ligand, UniProt P12850 25-96, looked up) APIANELRCQCLQTMAGIHLKNIQSLKVLPSGPHCTQTEVIATLKNGREACLDPEAPLVQKIVQKMLKGVPK | binding result (murine D6 [4]): no binding
12 |  | 46 nM | human Eotaxin (ligand) not shown | 
13 | 2 nM | 3.6 nM | human RANTES (ligand, UniProt P13501 24-91, looked up, also called hRANTES; HRANTES) SPYSSDTTPCCFAYIARPLPRAHIKEYFYTSGKCSNPAVVFVTRKNRQVCANPEKKWVREYINSLEMS | [Ca++] [2]: 19.3 nmol/L
14 | 5 nM | 1.2 nM | human MCP-3 (ligand, also called hMCP-3) not shown | 
15 |  | 6.3 nM | murine MCP-5 (ligand, UniProt Q62401 23-104, looked up, also called mMCP-5) GPDAVSTPVTCCYNVVKQKIHVRKLKSYRRITSSQCPREAVIFRTILDKEICADPKEKWVKNSINHLDKTSQTFILEPSCLG | 
16 |  | 0.92 nM | B3 | [Ca++] [2]: 28.2 nmol/L; [Ca++] [3]: 11.3 nmol/L; binding result (murine D6 [5]): binds
